These results are taken from article PMC466946 (Science Advances, 2024).

As a reminder, the Kd is the equilibrium constant for the complex coming apart. Read a high Kd as lower affinity.

In this assay the target is SARS-CoV-2 S ectodomain trimer (SΔTM), wild type (SARS-CoV-2, UniProt P0DTC2). Put plainly: SPR. In general terms: Surface plasmon resonance follows binding to a sensor surface in real time, without labels.

B1: neutralizing monoclonal antibody 4A8 (NTD-directed), human IgG1 kappa (antibody, V domains shown)
VH: EVQLVESGAEVKKPGASVKVSCKVSGYTLTELSMHWVRQAPGKGLEWMGGFDPEDGETMYAQKFQGRVTMTEDTSTDTAYMELSSLRSEDTAVYYCATSTAVAGTPDLFDYYYGMDVWGQGTTVTVSS
VL: EIVMTQSPLSSPVTLGQPASISCRSSQSLVHSDGNTYLSWLQQRPGQPPRLLIYKISNRFSGVPDRFSGSGAGTDFTLKISRVEAEDVGVYYCTQATQFPYTFGQGTKVDIK
In the case of B1, binding was characterised by a dissociation constant (Kd) of 0.42 ± 0.07 nM.
